Data as given in patent WO2024019110A1 (dated 2024).

B1: recombinant Fab protein of antibody No. 6 (Fab, V domains shown)
VH: QVQLVQSGPEVKKPGTSVKVSCKASGFTFYYSAVQWVRQARGQRLEWLGWMAVGSGKANYAQKFQERLTLTRDMSTSTAYMELSSLRSEDTAVYYCAAPNCTGGSCYDGFNLWGQGTVVTVSS
VL: EIVLTQSPGTLSLSPGDRAILSCRASQTVNSNYLAWYQQKPGQAPRLLIYGTSSRATGIPDRFSGSGSGTDFTLTISRLEPEDFAVYYCQQYGSSPWLFGQGTKVEIK
B2: recombinant Fab protein of antibody No. 7 (Fab, V domains shown)
VH: EVQLLESGGGLVQPGGSLRLSCAASGFTFSRYALSWVRQAPGKGLEWVSAISGAAITTYYADSVKGRFTISRDDSRNTLFMQMDSLRAEDTAVYYCAKGDYYDSSGYLAEYFPHWGQGTLVTVSS
VL: SYELTQPPSVSVSPGQTARITCFADALPKQHAYWYQQKAGQAPVLVIFKDTERPSGIPKRFSGSRSGATVTLTISGVQAEDEADYYCQSTDISGVLFGGGTKLTVL
B3: recombinant Fab protein of antibody No. 2 (Fab, V domains shown)
VH: EVQLVESGGGVVQPGRSLRLSCAASGFKFSKFAMHWVRQAPGKGPEWVAVISYDGNQYHSADSVKGRFTISRDNSFNTLYLQMNSLGPEDTAVYYCARDGPDTSGYYANIYFDFWGQGTLVTVSS
VL: QSVLTQPPSVSGAPGQRVTISCTGSSSNIGAGYDVHWYQQLPGRAPKLLIFDNNNRPSGVPDRFSGSKSGTSASLAITGLQTEDEAYYYCQSYDNSLILAVFGGGTKVTVL
B4: recombinant Fab protein of antibody No. 5 (Fab, V domains shown)
VH: EVQLVESGGGLVQPGGSLRLSCAASGFTFYSYWMTWVRQAPGKGLEWVANIKHDESESHYVDSVRGRFTISRDNAKNSVYLQMKGLRAEDTAVYYCARDGGYNILTAYYHAPSYWGQGTLVTVSS
VL: QSALTQPASVSGSPGQSITISCTGTSSDVGGYNFVSWYRQYPGKAPQLMIYDVSRRPSGDSDRFSGSKSGNTASLTISGLQAEDEAEYHCSSYTGRSPYVVFGGGTKVTVL

molecular target: Delta strain RBD, biotinylated (SARS-CoV-2 (Delta strain), UniProt P0DTC2 331-529); assay: BLI (Octet), biotinylated RBD on streptavidin biosensor, Fab in solution

Binder | Kd [nM]
B1 | ≤ 100
B2 | ≤ 100
B3 | ≤ 100
B4 | ≤ 100

molecular target: Omicron strain (BA.2) RBD, biotinylated (SARS-CoV-2 (Omicron strain BA.2), UniProt P0DTC2 331-529); assay: as above

Binder | Kd [nM]
B1 | ≤ 100
B2 | ≤ 100
B3 | ≤ 100
B4 | ≤ 100

molecular target: Omicron strain (BA.1) RBD, biotinylated (SARS-CoV-2 (Omicron strain BA.1), UniProt P0DTC2 331-529); assay: as above

Binder | Kd [nM]
B1 | ≤ 100
B2 | ≤ 100
B3 | ≤ 100
B4 | ≤ 100
